Laboratory results reported in patent US6994974B1, “Intracellular amyloid-beta binding (ERAB) polypeptide-related assays” (The trustees of Columbia University in the city of New York, priority 1997, dated 2006).

Biological target: T1, amyloid-beta peptide (1–42) (Homo sapiens, UniProt P05067)
T1 construct: the region encoding A4 (APP amino acids 653 to 694)
Experiment: Binding of ^125I-TrcHis-ERAB polypeptide to amyloid-beta peptide (1–42) adsorbed to microtiter wells
Conditions: excess unlabelled protein
Description: FIGS. 2A, 2B, 2C, 2D, 2E, 2F, and 2G. […] FIG. 2A. SDS-PAGE (12%; reduced) followed by immunoblotting of TrcHis-ERAB polypeptide (FIG. 2A, lane 1; 2 μg) and TrcHis-chloramphenicol acetyltransferase (CAT; FIG. 2A, lane 2; 2 μg) fusion proteins using anti-ERAB polypeptide IgG (3 μg/ml). […] FIGS. 2B and 2C. […] Binding was analyzed by nonlinear least squares analysis using the method of Klotz and Hunston (60). FIG. 2E. […] FIGS. 2F and 2G. […] 0 indicates wells coated with albumin alone. […] Control TrcHis-CAT construct (Invitrogen) was also used to transform E. coli and the fusion protein was purified as above. Antibody to ERAB polypeptide was prepared by immunizing rabbits with ERAB polypeptide-derived peptides, corresponding to residues 100–116 and 133–147, conjugated to keyhole limpet hemocyanin. […] (for ERAB polypeptide) or overnight at 4° C. […] Unbound radioactivity was removed by washing wells five times with ice cold phosphate-buffered saline containing Tween 20 (0.05%), and bound radioactivity was eluted by incubation with Nonidet P-40 (1%).

B1: TrcHis-CAT: control fusion protein, TrcHis-chloramphenicol acetyltransferase (protein)
chain: MEKKITGYTTVDISQWHRKEHFEAFQSVAQCTYNQTVQLDITAFLKTVKKNKHKFYPAFIHILARLMNAHPEFRMAMKDGELVIWDSVHPCYTVFHEQTETFSSLWSEYHDDFRQFLHIYSQDVACYGENLAYFPKGFIENMFFVSANPWVSFTSFDLNVANMDNFFAPVFTMGKYYTQGDKVLMPLAIQVHHAVCDGFHVGRMLNELQQYCDEWQGGA
modifications: left off: small tags and cut ends
notes: control fusion protein, TrcHis-chloramphenicol acetyltransferase
- Inhibition of ^125I-TrcHis-ERAB binding to adsorbed amyloid-beta peptide: did not inhibit
